# Data as given in the RNAGym collection of RNA variant scans (doi:10.7554/elife.80360).
# B1: Hairpin Ribozyme (parent)
# chain: GUCCUCUUUCACGUGCGCGUGAAAGAGAGAAGUGAACCAGAGAAACACACGUUGUGGUAUAUUACCUGGUA
# Variants of: B1
# Experiment: self-cleavage, relative activity (ratio to wild type); higher = more cleavage; co-transcriptional
row,Variant,self-cleavage
1,A31U U67A,0.1
2,A31U U67G,0.0559
3,A31G A35C,0.6
4,A31U G34A,0.0803
5,G32U G56A,0.117
6,G32C C48G,0.121
7,G32C C48A,0.112
8,A31C G34C,0.127
9,A31C G34U,0.0576
10,A30U A45C,0.0664
11,G32U A45G,0.0481
12,G32U A45U,0.3
13,A31G A43U,0.11
14,G32A A45U,0.143
15,G32A A45C,0.277
16,G32U A35U,0.191
17,G32U A35G,0.0968
18,G32U A49G,0.128
19,G32U A49C,0.0697
20,G32U C38G,0.125
21,G32U C38U,0.0994
22,G32C U63A,0.208
23,G32C U63G,0.035
24,G32C U63C,0.0888

row,Variant,self-cleavage
1,A31C U53A,0.126
2,U33C C38G,0.123
3,G32A A41C,0.145
4,G32A A41G,0.183
5,U33C C37G,0.0717
6,G32C C38G,0.0953
7,G32C C38U,0.181
8,G32U A71C,0.206
9,G32U A71G,0.214
10,A31C A64G,0.0732
11,G32A C37A,0.115
12,G32A C37U,0.129
13,G32C A43U,0.127
14,G32C A43C,0.23
15,G32C A43G,0.0421
16,G32U U62G,0.182
17,G32C A49C,0.0996
18,A30U A49U,0.274
19,A30U A49G,0.2
20,G32A U52C,0.101
21,A31C A45C,0.0871
22,U33C A39C,0.171
23,A31G A61G,0.118
24,A31G C66G,0.211

row,Variant,self-cleavage
1,A31G C66A,0.127
2,A31G G34U,1.54
3,A31G G34C,1.44
4,A31C C37A,0.0507
5,A31C C37U,0.134
6,A31C A35C,0.069
7,A31C A35U,0.181
8,A31U A41G,0.0486
9,U33A A61C,0.127
10,G32U G51U,0.119
11,G32U G51A,0.179
12,G32U U53C,0.253
13,G32U U53G,0.103
14,A30U G34C,0.42
15,A30U G34U,0.805
16,U33C A41C,0.114
17,G32U A47U,0.121
18,G32U A47G,0.0761
19,A31C A71U,0.1
20,A31G G42C,0.278
21,A31U U55C,0.0975
22,G32U U55A,0.0859
23,G32C C46G,0.0694
24,U33A A47U,0.127

row,Variant,self-cleavage
1,U33A A47G,0.0897
2,G32C G57C,0.113
3,G32A G57A,0.0905
4,G32A C50A,0.168
5,G32A C50G,0.179
6,A31C U55A,0.0627
7,A31U A44G,0.215
8,A30U U70G,0.117
9,U33A U55G,0.0798
10,U33A C50G,0.211
11,A30U A44C,0.0664
12,A30U A44G,0.064
13,G32C A47G,0.0562
14,G32C A47U,0.0919
15,G32C A39U,0.174
16,A31U A36U,0.121
17,A31C U33A,0.241
18,G32C U62G,0.0745
19,G32C U62A,0.234
20,G32A C46A,0.145
21,G32C A61U,0.0498
22,G32U G40C,0.0975
23,G32U G40U,0.152
24,G32U U58G,0.137

row,Variant,self-cleavage
1,U33A A49C,0.163
2,A31U U33C,0.0766
3,A31U U33G,0.143
4,A30U C37U,0.206
5,G32C U53C,0.155
6,A31C A61G,0.0877
7,G32A C38A,0.115
8,A31C G56A,0.148
9,A31C U63G,0.119
10,A31C U63C,0.23
11,A31G U70C,0.751
12,A31G U70G,0.376
13,G32C C37U,0.131
14,A31U G56U,0.187
15,A31U G56A,0.0543
16,U33C A71U,0.144
17,G32C U55G,0.0931
18,G32C U55A,0.176
19,G32A C48G,0.117
20,A31C A36U,0.0851
21,A31G G51A,0.927
22,G32U U67G,0.121
23,G32U U67A,0.171
24,G32A U62A,0.162

row,Variant,self-cleavage
1,G32A U62C,0.128
2,A31U A61G,0.159
3,U33A C66G,0.101
4,A31C G69C,0.0986
5,U33C A59U,0.128
6,U33C A59C,0.198
7,U33C A59G,0.083
8,A31C A41C,0.0332
9,A30U A47U,0.0724
10,A30U C66G,0.165
11,A30U C66A,0.096
12,U33A G54C,0.128
13,G32A A64G,0.142
14,G32U A39G,0.0986
15,G32U A39C,0.116
16,A31G U62G,0.199
17,A31C G51U,0.149
18,U33A U58C,0.0877
19,A30U G51C,0.164
20,A30U G51U,0.193
21,A30U G40A,0.0894
22,G32A U33G,0.137
23,G32C C50A,0.109
24,G32C C50G,0.14

row,Variant,self-cleavage
1,G32U A44C,0.112
2,G32U A44U,0.243
3,A31U G69C,0.111
4,G32A U58C,0.184
5,G32A U58A,0.0567
6,G32A U58G,0.16
7,G32U A61U,0.109
8,A31C C38G,0.196
9,A31C C38A,0.141
10,A31U C38U,0.157
11,G32A G34C,1.23
12,U33A C37G,0.182
13,U33A C37U,0.109
14,A31C C50A,0.139
15,U33C A64U,0.154
16,G32C G69C,0.115
17,A30U U53A,0.138
18,A30U U53G,0.277
19,A31U G32A,0.102
20,A31U G32C,0.165
21,A30U C48U,0.197
22,U33A G34U,0.134
23,A31U U58G,0.18
24,G32U C66U,0.194

row,Variant,self-cleavage
1,A31C U70C,0.0987
2,A30U C38G,0.108
3,A30U C38A,0.0692
4,A30U C38U,0.232
5,A30U G69C,0.0465
6,A31G C65A,0.891
7,A31G C65G,0.17
8,A30U G42U,0.119
9,A30U G42C,0.114
10,G32A G51C,0.113
11,G32A G51U,0.122
12,A30U U63G,0.0835
13,A31U A43U,0.0597
14,G32A A43U,0.0753
15,A31C C66G,0.102
16,A31C C66A,0.146
17,G32C A44G,0.137
18,U33A A43U,0.115
19,U33A A43C,0.219
20,A31C A43U,0.0953
21,A30U U52G,0.0874
22,A30U U52C,0.135
23,U33A A41C,0.0532
24,U33A A41G,0.0913

row,Variant,self-cleavage
1,G32U G42A,0.153
2,A31U G40C,0.154
3,A31U G40U,0.182
4,G32A A36C,0.145
5,G32A A36G,0.0788
6,G32A A36U,0.111
7,A31U A47C,0.109
8,U33C C46G,0.187
9,A31G U58A,0.323
10,A31G U58C,0.793
11,A31G U58G,0.404
12,A31C U52G,0.0727
13,A30U A61G,0.0939
14,A31U C46G,0.212
15,G32U C48G,0.188
16,G32U G34C,0.18
17,G32A U63C,0.0959
18,A31G U67A,0.0798
19,G32U U33C,0.222
20,G32U U33A,0.148
21,G32C A35G,0.146
22,U33A A64U,0.21
23,U33A A64C,0.143
24,A31G C48G,0.1

row,Variant,self-cleavage
1,A31G C48U,0.257
2,U33C A49U,0.127
3,U33C A49C,0.148
4,G32C A59C,0.198
5,A31U U52C,0.116
6,A31U U52G,0.117
7,A31U U52A,0.048
8,A31G A71C,1.05
9,A30U A71G,0.286
10,G32A A35C,0.177
11,U33A C38A,0.13
12,U33A C38G,0.128
13,U33A U62A,0.148
14,U33A U62G,0.174
15,G32A A59G,0.189
16,G32A A59C,0.133
17,U33A U67G,0.169
18,A31U U62A,0.115
19,A31C G68U,0.122
20,A31C G68A,0.152
21,A31C G68C,0.135
22,U33A G40A,0.108
23,U33A G40U,0.126
24,G32C G51C,0.0912

row,Variant,self-cleavage
1,G32C G51A,0.14
2,A31U C48U,0.109
3,A31U C48G,0.0916
4,A31U G42A,0.0839
5,A31U C65U,0.121
6,A31U C65G,0.166
7,A31U U53C,0.133
8,A30U C46U,0.0965
9,A31U U70C,0.0555
10,A31U U70G,0.27
11,G32C A45U,0.121
12,G32C C66G,0.114
13,G32U U63A,0.172
14,G32C U60C,0.0463
15,A31G U63G,0.135
16,G32C A41C,0.0995
17,G32C A41U,0.101
18,G32U C46A,0.272
19,G32U C46G,0.14
20,U33A A39C,0.105
21,G32C C65U,0.0495
22,A31G A45G,0.0922
23,G32C G40A,0.164
24,A31C C65A,0.0267

row,Variant,self-cleavage
1,A31C C65U,0.0838
2,U33A U60A,0.0246
3,G32A U55A,0.107
4,G32A G42A,0.0757
5,G32A G42C,0.124
6,A31U U63C,0.247
7,U33A U53G,0.0866
8,U33A U53C,0.264
9,U33A U53A,0.103
10,A31C G32U,0.348
11,A31C G32A,0.173
12,A31G U55C,0.28
13,A31G A41C,1.2
14,A31C U62A,0.12
15,A30U U62C,0.144
16,A30U U62G,0.108
17,A30U U62A,0.177
18,G32U U52C,0.144
19,A31U C37A,0.0463
20,G32U G69U,0.0924
21,A31C G42A,0.164
22,U33A A36G,0.202
23,G32C U52C,0.131
24,A30U U33A,0.0677

row,Variant,self-cleavage
1,G32A G56C,0.0365
2,A31G U60A,0.677
3,A31G U60G,0.412
4,A31C U60G,0.194
5,U33A G57U,0.13
6,U33C A47U,0.0811
7,A31C A59C,0.103
8,A31C A59G,0.132
9,A31U G68C,0.175
10,A30U U55A,0.0256
11,A30U U55G,0.106
12,A30U G32U,0.0889
13,A30U G32A,0.183
14,A31U A64C,0.0924
15,G32A A71C,0.15
16,G32A A71U,0.155
17,G32A U70A,0.139
18,A31G G32U,0.121
19,G32A U53C,0.243
20,G32A U53G,0.146
21,A31C A44G,0.174
22,A31C A44U,0.109
23,G32U A41G,0.0256
24,G32A G69U,0.161

row,Variant,self-cleavage
1,A31U U60C,0.103
2,A31G G56A,0.0841
3,G32C U58A,0.116
4,G32A G54U,0.136
5,G32A G54A,0.156
6,A31G G68A,0.189
7,A31G G68C,0.115
8,G32A A39C,0.0881
9,G32A A39G,0.107
10,G32C G34U,0.163
11,A31G C38A,0.157
12,G32C U70C,0.234
13,U33A A35U,0.131
14,U33A A35G,0.17
15,A31U A39U,0.12
16,A31U A39C,0.0658
17,G32U A43U,0.148
18,A31C C48U,0.159
19,A30U G57A,0.0986
20,A30U G57U,0.175
21,A31U G51U,0.121
22,G32A C66U,0.177
